These results are taken from patent US20130096276A1.

The target of the assay is human immunoglobulin G drug separated from human plasma (Gammagard, Baxter) (human).

With C-G29A/D36R.5d (designed binder), the Ka is 3e+08 M⁻¹.
Then C-G29A/K35R/D37E.5d (designed binder), with 6.5e+07 M⁻¹.
